Laboratory results as given in patent US20160355587A1.

Target: human CD166 on human cells or tissue (human) (UniProt Q13740)
Assay: inhibition of adhesion of CD166-expressing HuT-78 cells to immobilized recombinant CD6

human CD166 on human cells or tissue (human), sequence (Q13740 28-583): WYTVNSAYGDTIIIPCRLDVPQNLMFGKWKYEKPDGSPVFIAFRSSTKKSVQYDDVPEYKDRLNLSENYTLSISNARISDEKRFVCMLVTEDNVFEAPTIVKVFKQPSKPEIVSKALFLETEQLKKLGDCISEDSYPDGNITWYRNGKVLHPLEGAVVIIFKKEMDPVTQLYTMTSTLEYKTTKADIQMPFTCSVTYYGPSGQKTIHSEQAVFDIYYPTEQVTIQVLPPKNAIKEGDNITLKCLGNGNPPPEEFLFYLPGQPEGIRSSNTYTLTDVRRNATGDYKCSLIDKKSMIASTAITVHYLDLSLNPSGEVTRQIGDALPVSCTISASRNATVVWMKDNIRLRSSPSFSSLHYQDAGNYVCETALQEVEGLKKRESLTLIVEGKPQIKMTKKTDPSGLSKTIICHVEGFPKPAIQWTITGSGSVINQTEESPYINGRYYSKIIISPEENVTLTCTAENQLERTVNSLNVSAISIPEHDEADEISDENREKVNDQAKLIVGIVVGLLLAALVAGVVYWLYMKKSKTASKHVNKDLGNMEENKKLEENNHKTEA

Substance: MAB656 (antibody)
- EC50: 3.7 nM
